Values quoted from earlier work in publication PMC8217106.

Molecular target: BCL9 (Homo sapiens) (UniProt O00512)
Sequence of UniProt O00512 (O00512 whole entry): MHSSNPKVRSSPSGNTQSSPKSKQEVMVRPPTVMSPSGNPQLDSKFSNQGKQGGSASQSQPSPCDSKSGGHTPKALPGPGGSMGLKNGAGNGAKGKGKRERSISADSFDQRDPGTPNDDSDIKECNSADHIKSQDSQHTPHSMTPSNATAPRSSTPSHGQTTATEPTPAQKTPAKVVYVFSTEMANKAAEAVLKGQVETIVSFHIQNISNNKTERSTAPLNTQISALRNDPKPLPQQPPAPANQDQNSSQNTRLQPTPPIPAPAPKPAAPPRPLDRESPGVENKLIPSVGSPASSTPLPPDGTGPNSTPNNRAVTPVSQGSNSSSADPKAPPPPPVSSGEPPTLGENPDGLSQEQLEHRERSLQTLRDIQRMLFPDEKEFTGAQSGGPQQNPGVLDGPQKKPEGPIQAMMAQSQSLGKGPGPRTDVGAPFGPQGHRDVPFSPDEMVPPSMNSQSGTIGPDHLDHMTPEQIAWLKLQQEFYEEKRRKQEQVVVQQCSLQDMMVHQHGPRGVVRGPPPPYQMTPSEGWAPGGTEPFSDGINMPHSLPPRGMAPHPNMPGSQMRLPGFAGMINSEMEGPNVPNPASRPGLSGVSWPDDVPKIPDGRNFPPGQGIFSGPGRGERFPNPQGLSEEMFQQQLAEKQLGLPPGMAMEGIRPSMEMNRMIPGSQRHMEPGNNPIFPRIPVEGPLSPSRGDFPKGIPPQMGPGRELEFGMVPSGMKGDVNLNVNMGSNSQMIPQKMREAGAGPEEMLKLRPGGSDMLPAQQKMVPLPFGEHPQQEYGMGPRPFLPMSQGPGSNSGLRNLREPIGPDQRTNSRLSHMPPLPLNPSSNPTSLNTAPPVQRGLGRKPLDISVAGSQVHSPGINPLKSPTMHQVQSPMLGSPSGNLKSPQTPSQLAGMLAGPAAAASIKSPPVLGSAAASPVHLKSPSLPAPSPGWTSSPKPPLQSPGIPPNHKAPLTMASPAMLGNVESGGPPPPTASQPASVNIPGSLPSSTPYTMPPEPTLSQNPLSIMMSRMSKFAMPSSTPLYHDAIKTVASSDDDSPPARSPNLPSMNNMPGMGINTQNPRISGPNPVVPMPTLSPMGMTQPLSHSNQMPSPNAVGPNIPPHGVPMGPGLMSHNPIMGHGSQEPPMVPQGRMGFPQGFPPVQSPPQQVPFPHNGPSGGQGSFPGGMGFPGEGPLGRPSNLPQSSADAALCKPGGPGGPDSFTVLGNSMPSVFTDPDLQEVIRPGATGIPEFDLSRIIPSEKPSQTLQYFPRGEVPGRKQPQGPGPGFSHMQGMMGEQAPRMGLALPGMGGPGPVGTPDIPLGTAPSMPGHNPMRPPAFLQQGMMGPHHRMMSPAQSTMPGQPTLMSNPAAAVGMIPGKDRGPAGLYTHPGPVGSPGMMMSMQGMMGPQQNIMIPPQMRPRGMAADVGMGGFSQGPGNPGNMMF

- Kd: 470 nM
Substance: β-catenin (from UniProt P35222)
